Laboratory results: patent publication US8828380B2, “Method for the treatment of pulmonary disease and method of producing proteins of use therein” (The United States of America, as represented by the …, priority 2009, dated 2014)
Each block holds one compound with its values, some of them ahead of it.

How the values were obtained:
[1] = Non-enzymatic conversion of ADP-ribosylarginine to ornithine, HPLC and amino acid analysis; assay type: physicochemical
arginase = target: T1, arginase (Homo sapiens, UniProt P05089); assay: Incubation with manganese-activated arginase, products by amino acid analysis and MS; assay type: biochemical; details: manganese-activated arginase 0.7 U, pH 9.5, 10 minutes, 37° C.
T1 sequence (P05089 1-322): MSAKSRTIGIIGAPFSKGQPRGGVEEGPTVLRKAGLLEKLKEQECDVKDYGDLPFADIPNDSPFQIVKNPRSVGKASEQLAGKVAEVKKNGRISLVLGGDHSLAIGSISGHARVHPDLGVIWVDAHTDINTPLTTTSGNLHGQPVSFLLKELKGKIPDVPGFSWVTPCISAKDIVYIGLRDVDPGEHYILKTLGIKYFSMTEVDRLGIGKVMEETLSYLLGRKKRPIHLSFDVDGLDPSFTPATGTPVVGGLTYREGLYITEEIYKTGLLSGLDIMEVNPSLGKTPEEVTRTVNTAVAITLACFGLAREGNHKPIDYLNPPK
Experimental: Arginase, found predominantly in liver, catalyzes the hydrolysis of arginine to ornithine in the urea cycle. The enzyme has been reported to require free arginine (Jenkinson et al., Comp. Biochem. Physiol. B Biochem. Mol. Biol. 114:107-132, 1996). HNP-1 was tested as a potential substrate for arginase. HNP-1 (1.4 nmol), mono-ADP-ribosylated-HNP-1 (1 nmol), ADP-ribosylarginine (18 μM), and arginine (5 mM) were each incubated with manganese-activated arginase (0.7 U) at pH 9.5 in 200 μl for 10 minutes at 37° C.

ART1 = target: T2, ART1 (Mus musculus, UniProt Q60935); assay: Substrate test for ART1
T2 sequence (Q60935 23-290 limits assumed): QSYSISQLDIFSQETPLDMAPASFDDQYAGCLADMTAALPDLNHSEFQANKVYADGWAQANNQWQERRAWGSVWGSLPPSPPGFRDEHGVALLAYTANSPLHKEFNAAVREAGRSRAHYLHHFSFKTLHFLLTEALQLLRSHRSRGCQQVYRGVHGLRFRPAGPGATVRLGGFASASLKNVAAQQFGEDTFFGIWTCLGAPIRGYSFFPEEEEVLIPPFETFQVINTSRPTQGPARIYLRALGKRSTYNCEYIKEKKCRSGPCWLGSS

[2] = Incubation of HPLC-purified mono- and di-ADP-ribosyl-HNP-1 at pH 7 or 9, products analysed by HPLC/MS; assay type: physicochemical
Experimental: HNP-1 was incubated overnight at 30° C. with 5 mM NAD in 150 μl of 50 mM potassium phosphate, pH 7.5 and ART1. Reactions were terminated by addition of guanidine HCl to a final concentration of 6 M. Products were separated by HPLC and analyzed by mass spectrometry (MS).
HNP-1 was reduced, cleaved by trypsin, and analyzed by reverse phase chromatography-mass spectrometry as described (Paone et al., Proc. Natl. Acad. Sci. USA 99:8231-8235, 2002), except that the reverse phase column was a Zorbax 300SB-C18, 2.1×50 mm, 3.5 micron, and the mass spectrometer was an Agilent model G1969 with a time of flight detector. Mass spectra were deconvoluted with Agilent software MassHunter version 2, and the fraction of each species was calculated from the areas of the deconvoluted peaks.
To verify that ART1 (or an enzymatic contaminant) was not required for ornithine formation, HPLC-purified mono- and di-modified HNP-1 were incubated for 24 hours at 37° C. at pH 7 or 9 and the reaction products were analyzed by HPLC (FIG. 4, Table 1). Di-ADP-ribosylated-HNP-1 degraded to mono-ADP-ribosylated-HNP-1-ornithine of 3940 molecular mass at pH 7 and the amount was greater at pH 9 (FIG. 4A-D). About 50% of di-ADP-ribosylated-HNP-1 degraded to mono-ADP-ribosylated-HNP-1-ornithine at pH 9, with ADP-ribosylated arginine 14 and ornithine at position 24 or ADP-ribosylated arginine 24 and ornithine at position 14.

Compound: NC(=NCCC[C@H](N)C(=O)O)N[C@H]1O[C@H](COP(=O)(O)OP(=O)(O)OC[C@H]2O[C@@H](n3cnc4c(N)ncnc43)[C@H](O)[C@@H]2O)[C@@H](O)[C@H]1O [ADP-ribosylarginine]
- product of incubation in acid ([1]; 6N HCl, 37° C., 24 hours): Arginine was cleaved
- amount of ornithine generated ([1]; incubation at pH 7 or pH 8): less than at pH 9
- maximal amount of ornithine, of initial ADP-ribosylarginine ([1]; pH 9, 24 hours, 37° C., amino acid analysis without prior acid hydrolysis): 21%
- ornithine formation by arginase (substrate or not) (arginase): ornithine only in the reaction that contained free arginine

Compound: N=C(N)NCCCCN [agmatine]
- substrate for ART1 (ART1): served as substrates

Compound: N=C(N)NCCC[C@H](N)C(=O)O [arginine]
- ornithine formation after incubation with free ADP-ribose ([1]; 24 hours, 37° C., 20 mM potassium phosphate pH 9): No ornithine was identified
- substrate for ART1 (ART1): served as substrates
- ornithine formation by arginase (substrate or not) (arginase): ornithine only in the reaction that contained free arginine

- substrate for ART1 (ART1): did not
Compound: NCCC[C@H](N)C(=O)O [ornithine, Ornithine]

Compound: ADPR-HNP: HNP-1 ADP-ribosylated on arginine 14
- percent of species ADPR-HNP at the end of the incubation ([2]; pH 7, time 0 h): 100%
- percent of species ADPR-HNP-Orn at the end of the incubation ([2]; pH 7, time 0 h): 0%
- percent of species Di-ADPR-HNP at the end of the incubation ([2]; pH 7, time 0 h): 0%
- percent of species Di-Orn-HNP at the end of the incubation ([2]; pH 7, time 0 h): 0%
- percent of species HNP at the end of the incubation ([2]; pH 7, time 0 h): 0%
- percent of species HNP-Orn at the end of the incubation ([2]; pH 7, time 0 h): 0%
- percent of species ADPR-HNP at the end of the incubation ([2]; pH 7, time 24 h): 82 ± 13%
- percent of species ADPR-HNP-Orn at the end of the incubation ([2]; pH 7, time 24 h): 0%
- percent of species Di-ADPR-HNP at the end of the incubation ([2]; pH 7, time 24 h): 0%
- percent of species Di-Orn-HNP at the end of the incubation ([2]; pH 7, time 24 h): 0%
- percent of species HNP at the end of the incubation ([2]; pH 7, time 24 h): 0%
- percent of species HNP-Orn at the end of the incubation ([2]; pH 7, time 24 h): 18 ± 13%
- percent of species ADPR-HNP at the end of the incubation ([2]; pH 9, time 0 h): 100%
- percent of species ADPR-HNP-Orn at the end of the incubation ([2]; pH 9, time 0 h): 0%
- percent of species Di-ADPR-HNP at the end of the incubation ([2]; pH 9, time 0 h): 0%
- percent of species Di-Orn-HNP at the end of the incubation ([2]; pH 9, time 0 h): 0%
- percent of species HNP at the end of the incubation ([2]; pH 9, time 0 h): 0%
- percent of species HNP-Orn at the end of the incubation ([2]; pH 9, time 0 h): 0%
- percent of species ADPR-HNP at the end of the incubation ([2]; pH 9, time 24 h): 61 ± 9%
- percent of species ADPR-HNP-Orn at the end of the incubation ([2]; pH 9, time 24 h): 0%
- percent of species Di-ADPR-HNP at the end of the incubation ([2]; pH 9, time 24 h): 0%
- percent of species Di-Orn-HNP at the end of the incubation ([2]; pH 9, time 24 h): 0%
- percent of species HNP at the end of the incubation ([2]; pH 9, time 24 h): 0%
- percent of species HNP-Orn at the end of the incubation ([2]; pH 9, time 24 h): 39 ± 9%
- ornithine formation by arginase (substrate or not) (arginase): ornithine only in the reaction that contained free arginine
